Test results taken from publication PMC4260917, “Defective FANCI Binding by a Fanconi Anemia-Related FANCD2 Mutant” (PLoS ONE, 2014).

Biological target: T1, chicken FANCD2, wild type, purified recombinant (chicken, UniProt Q68Y81 1-1439)
T1 construct: FANCD2, chicken (Gallus gallus); also called cFANCD2; WT cFANCD2; source: E. coli BL21(DE3) codon(+)RIL, purified
Assay: SEC; Superdex 200 10/300 GL; equimolar mixture of cFANCD2 and cFANCI; 20 mM Tris-HCl (pH 8.0), 10% glycerol, 200 mM NaCl, 5 mM 2-mercaptoethanol; fractions on 7% SDS-PAGE, silver staining
Conditions: both partners purified

T1 sequence (Q68Y81 whole entry): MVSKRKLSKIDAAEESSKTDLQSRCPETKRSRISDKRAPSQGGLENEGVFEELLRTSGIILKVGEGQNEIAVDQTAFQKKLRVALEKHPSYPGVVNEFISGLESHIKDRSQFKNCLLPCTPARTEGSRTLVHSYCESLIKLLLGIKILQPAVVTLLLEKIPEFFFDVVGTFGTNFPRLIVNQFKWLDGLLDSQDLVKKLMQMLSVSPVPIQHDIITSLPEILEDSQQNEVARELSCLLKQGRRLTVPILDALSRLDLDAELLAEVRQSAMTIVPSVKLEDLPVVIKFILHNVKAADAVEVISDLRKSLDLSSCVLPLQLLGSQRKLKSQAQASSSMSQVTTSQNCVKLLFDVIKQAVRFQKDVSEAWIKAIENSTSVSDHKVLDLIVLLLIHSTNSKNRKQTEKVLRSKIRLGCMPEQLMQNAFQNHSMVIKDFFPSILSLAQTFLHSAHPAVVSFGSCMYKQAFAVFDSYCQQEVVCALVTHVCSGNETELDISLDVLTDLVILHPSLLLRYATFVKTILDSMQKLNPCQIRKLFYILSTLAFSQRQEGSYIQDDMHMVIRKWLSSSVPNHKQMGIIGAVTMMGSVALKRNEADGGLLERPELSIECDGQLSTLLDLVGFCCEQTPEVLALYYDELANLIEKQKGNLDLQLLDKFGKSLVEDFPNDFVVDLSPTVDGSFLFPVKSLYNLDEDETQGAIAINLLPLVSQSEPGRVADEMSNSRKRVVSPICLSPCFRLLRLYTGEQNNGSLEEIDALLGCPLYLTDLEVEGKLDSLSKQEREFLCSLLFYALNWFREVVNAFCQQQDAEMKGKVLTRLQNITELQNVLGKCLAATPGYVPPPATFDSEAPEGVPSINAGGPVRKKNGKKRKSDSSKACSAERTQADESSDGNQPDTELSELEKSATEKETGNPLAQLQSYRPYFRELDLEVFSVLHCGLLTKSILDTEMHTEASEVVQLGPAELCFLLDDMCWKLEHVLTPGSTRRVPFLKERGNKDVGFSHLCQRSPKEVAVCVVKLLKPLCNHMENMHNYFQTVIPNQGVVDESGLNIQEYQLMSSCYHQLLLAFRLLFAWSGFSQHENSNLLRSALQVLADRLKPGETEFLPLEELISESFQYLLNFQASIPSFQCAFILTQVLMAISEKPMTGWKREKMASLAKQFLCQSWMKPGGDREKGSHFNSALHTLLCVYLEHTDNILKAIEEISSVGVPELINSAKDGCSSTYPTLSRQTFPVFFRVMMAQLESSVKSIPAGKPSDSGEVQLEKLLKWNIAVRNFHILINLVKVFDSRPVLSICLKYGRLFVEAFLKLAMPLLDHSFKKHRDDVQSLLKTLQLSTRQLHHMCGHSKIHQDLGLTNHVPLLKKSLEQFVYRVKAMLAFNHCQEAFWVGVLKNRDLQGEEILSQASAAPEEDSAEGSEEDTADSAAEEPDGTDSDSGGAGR

binding result: binds
B1: chicken FANCI, wild type, purified recombinant (natural protein, UniProt B0I564 1-1338, looked up)
chain: MAQRILQLAAEGSPERLQEALQGLTEGELGDMVTRQALRGRETAALLKGIFKGSPCSQQSGVLRRLQVYKHCVSLVESGDLHVGKVSEIIGLLMLEARQLPGHALAELATLFVEVIKRGSLSNGKSLELFSTVLTALSNSKESLAYGKGELNGEEFKKQLINTLCSSKWDPQCVIHLANMFRDIPLSGEELQFVVEKVLRMFSKLDLQEIPPLVYQLLLLSAKGSKKTVLEGIISFFNQLDKRQKEEQRVPQSADLEVATVPLDQLRHVEGTVILHIVSAINLDQDIGEELIKHLKTEQQKDPGKALCPFSVSLLLSTAVKHRLQEQIFDFLKTSITRSCKDLQILQASKFLQDLCPQQYDVTAVILEVVKNSAFGWDHVTQGLVDLGFSLMESYEPKKSFGGKAAETNLGLSKMPAQQACKLGASILLETFKVHEPIRSDILEQVLNRVLTKAASPVSHFIDLLSNIVVSAPLVLQNSSSRVTETFDNLSFLPIDTVQGLLRAVQPLLKVSMSVRDSLILVLQKAIFSRQLDARKAAVAGFLLLLRNFKILGSLTSSQCSQAIGATQVQADVHACYNSAANEAFCLEILGSLRRCLSQQADVRLMLYEGFYDVLRRNSQLASSIMETLLSQIKQYYLPQQDLLPPLKLEGCIMAQGDQIFLQEPLAHLLCCIQHCLAWYKSTVHLCKGAEDEEEEEDVGFEQNFEEMLESVTRRMIKSELEDFELDKSADFSPSSGVGVKNNIYAIQVMGICEVLIEYNFKIGNFSKNKFEDVLGLFTCYNKLSEILKEKAGKNKSTLGNRIARSFLSMGFVSTLLTALFRDNAQSHEESLAVLRSSTEFMRYAVSVALQKVQQLEEMGQTDGPDGQNPEKMFQNLCKITRVLLWRYTSIPTAVEESGKKKGKSISLLCLEGLLRIFNTMQQLYAARIPQFLQALDITDGDAEEADINVTEKAAFQIRQFQRSLVNQLSSAEDDFNSKETQLLITILSTLSKLLDPGSQQFLQFLTWTVKICKENALEDLSCCKGLLTLLFSLHVLYKSPVSLLRELAQDIHACLGDIDQDVEIESRSHFAIVNVKTAAPTVCLLVLGQADKVLEEVDWLIKRLTILGSDTSEDSTQASNQTQALEKGVILQLGTLLTVFHELVQTALPAGSCVDSLLRSLSKTYAILTSLIKHYIQACRSTSNTVPGRLEKLVKLSGSHLTPQCYSFITYVQNIHSESLSFAEEKKKKKKEDETAVVSTVMAKVLRDTKPIPNLIFAIEQYEKFLIHLSKKSKVNLMQYMKLSTSRDFRINASMLDSVLQEQNTEDAENEPDNNQSGTAEQPDENQEPQKKRRRKK
notes: FANCI, chicken (Gallus gallus); also called cFANCI; WT cFANCI; source: E. coli BL21(DE3) codon(+)RIL, purified
